From patent US8828941 (KUNOVUS, dated 2014)

Target: the molecule itself
Assay: non-reducing PAGE of protein from CHO cells
Excerpt: Concentrated supernatants from one well of a 6-well plate were separated using polyaclylamide gel electrophoresis (PAGE) under […] conditions. Proteins were transferred to nitrocellulose membranes and detected with antisera specific for GDF-6 or for the FLAG tag, secondary antibodies and detection system.

B1: active domain of GDF-6 fused to a FLAG tag (SEQ ID NO: 25), expressed in CHO cells (ligand)
chain: MDYKDDDDKENLYFQGTAFASRHGKRHGKKSRLRCSKKPLHVNFKELGWDDWIIAPLEYEAYHCEGVCDFPLRSHLEPTNHAIIQTLMNSMDPGSTPPSCCVPTKLTPISILYIDAGNNVVYKQYEDMVVESCGCR
notes: Non-reducing PAGE indicates a homodimer; also called active fragment of GDF-6; active fragment
- binding result: binds
